# Laboratory results published in paper PMC4588518.
# Target: LegK4^1–445 (Legionella pneumophila LegK4, residues 1 to 445) (Legionella pneumophila)
# Test: SEC-SAXS
substance,measurement,value
"LegK4^1–445 (Legionella pneumophila LegK4, residues 1 to 445) (domain or fragment)",stoichiometry N,2
